Assay results published in the supplement of paper PMC6757056.
± gives the standard deviation of the averaged measurements.

B1: library; a variant is named by its letters at N, in order (parent)
chain: GCUGUCACCGAGAAACUGUGAAGUAUAUCUUAAACCUGGGCACUUAAAAGAUAUAUGGAGUUAGUAGUGCAACCUGCUCGGUCUGAUGAGUCCNNNNNNGGACGAAACAGC

Key:
[1] = variants of: B1; experiment: normalized RNA/DNA level without ligand (relative to sTRSVctl = 100) (log10 (% of sTRSVctl)); HEK293T; ligand: cyclic di-GMP (c-di-GMP-II aptamer); higher = less ribozyme self-cleavage, higher mRNA level; details: reporter: mCherry (pCS4076), ligand present: no
Procedure, shortened: (§1)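 For each 6-well well, 4 µg of library plasmid encoding mCherry-linked ribozyme switches, or eGFP-linked ones in some ligand experiments, was transfected into HEK293T. Any ligand was added 1 h before transfection, and RNA was extracted with EDTA 72 h after it, then reverse-transcribed, amplified, barcoded and sequenced. RNA level was obtained by dividing RNA reads by DNA reads, normalizing to a spiked-in non-cleaving sequence or to the top sequences, then scaling and log-transforming. The top set was 25 sequences, scaling was ×100 with log10, and ≥100 DNA reads were required.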

[2] = variants of: B1; experiment: normalized RNA/DNA level with ligand (relative to sTRSVctl = 100) (log10 (% of sTRSVctl)); HEK293T; ligand: cyclic di-GMP (c-di-GMP-II aptamer); ligand concentration (+) RNA-Seq: 1 mM; higher = less ribozyme self-cleavage, higher mRNA level; details: reporter: mCherry (pCS4076), ligand present: yes
Procedure, shortened: as §1

Row | Variant | normalized RNA/DNA level without ligand (log10) [1] | normalized RNA/DNA level with ligand (log10) [2]
1 | UGGGGA | 1.58 ± 0.085 | 1.73 ± 0.073
2 | UCGCUG | 1.69 ± 0.0043 | 1.84 ± 0.082
3 | CCAACG | 1.71 ± 0.049 | 1.85 ± 0.1
4 | GUUGUA | 1.57 ± 0.024 | 1.77 ± 0.1
5 | UGACGG | 1.68 ± 0.039 | 1.82 ± 0.11
6 | ACCAAU | 1.48 ± 0.049 | 1.7 ± 0.11
7 | CGCGCC | 1.75 ± 0.025 | 1.88 ± 0.14
8 | UUUUCC | 1.84 ± 0.058 | 1.89 ± 0.16
9 | AUCCGG | 1.85 ± 0.024 | 1.93 ± 0.023
10 | UGGUUU | 1.761 ± 0.011 | 1.88 ± 0.12
11 | UCUAGA | 1.74 ± 0.021 | 1.88 ± 0.15
12 | GGACAC | 1.71 ± 0.053 | 1.84 ± 0.13
13 | AGACUG | 1.749 ± 0.013 | 1.84 ± 0.071
14 | AACAGC | 1.63 ± 0.078 | 1.78 ± 0.14
15 | GAUGGC | 1.68 ± 0.051 | 1.8 ± 0.13
16 | CGAUCU | 1.52 ± 0.053 | 1.7 ± 0.073
17 | AGGCUG | 1.774 ± 0.0035 | 1.87 ± 0.051
18 | AAAAUA | 1.48 ± 0.041 | 1.69 ± 0.1
19 | AGCCCC | 1.81 ± 0.031 | 1.92 ± 0.12
20 | AGGUGC | 1.75 ± 0.037 | 1.82 ± 0.11
21 | ACACGC | 1.554 ± 0.0051 | 1.76 ± 0.13
22 | UUACAU | 1.677 ± 0.014 | 1.82 ± 0.1
23 | GGAUCA | 1.63 ± 0.02 | 1.77 ± 0.13
24 | GGCAGU | 1.76 ± 0.071 | 1.849 ± 0.0031

Row | Variant | normalized RNA/DNA level without ligand (log10) [1] | normalized RNA/DNA level with ligand (log10) [2]
25 | AGGAGU | 1.52 ± 0.084 | 1.67 ± 0.058
26 | CGAUUC | 1.63 ± 0.022 | 1.81 ± 0.075
27 | UCGACA | 1.619 ± 0.0042 | 1.77 ± 0.12
28 | UAUAUG | 1.71 ± 0.044 | 1.84 ± 0.12
29 | GCAGUU | 1.45 ± 0.082 | 1.65 ± 0.11
30 | GGUCAC | 1.754 ± 0.014 | 1.87 ± 0.091
31 | CGCGUU | 1.67 ± 0.021 | 1.86 ± 0.12
32 | AGUGCG | 1.7 ± 0.058 | 1.85 ± 0.095
33 | AACUCA | 1.65 ± 0.035 | 1.8 ± 0.088
34 | AGUUGG | 1.63 ± 0.043 | 1.8 ± 0.11
35 | GGCGAU | 1.586 ± 0.014 | 1.72 ± 0.11
36 | UGAUCA | 1.76 ± 0.073 | 1.88 ± 0.11
37 | CGAGCC | 1.824 ± 0.0092 | 1.88 ± 0.083
38 | AGGCCC | 1.86 ± 0.05 | 1.95 ± 0.1
39 | UACCGU | 1.59 ± 0.027 | 1.75 ± 0.1
40 | CAGGGA | 1.53 ± 0.13 | 1.67 ± 0.067
41 | UAUCGU | 1.67 ± 0.02 | 1.79 ± 0.095
42 | CGCGAG | 1.743 ± 0.0083 | 1.828 ± 0.012
43 | AUGGAC | 1.6 ± 0.055 | 1.76 ± 0.091
44 | AAUGCG | 1.704 ± 0.0078 | 1.82 ± 0.15
45 | GUAAGC | 1.58 ± 0.028 | 1.76 ± 0.16
46 | AGCGCG | 1.708 ± 0.0043 | 1.83 ± 0.12
47 | GCCUUC | 1.61 ± 0.038 | 1.79 ± 0.099
48 | GAAACG | 1.61 ± 0.053 | 1.77 ± 0.069

Row | Variant | normalized RNA/DNA level without ligand (log10) [1] | normalized RNA/DNA level with ligand (log10) [2]
49 | UGGUGG | 1.68 ± 0.017 | 1.81 ± 0.12
50 | AGAGGC | 1.665 ± 0.0051 | 1.77 ± 0.13
51 | AAUUAG | 1.6 ± 0.029 | 1.76 ± 0.11
52 | GUUCCC | 1.8 ± 0.021 | 1.9 ± 0.13
53 | GUAAGU | 1.65 ± 0.033 | 1.77 ± 0.061
54 | CUUGUU | 1.72 ± 0.07 | 1.85 ± 0.12
55 | GAACCA | 1.677 ± 0.0078 | 1.8 ± 0.13
56 | CAGGAU | 1.64 ± 0.094 | 1.78 ± 0.068
57 | UUAAAA | 1.645 ± 0.0029 | 1.8 ± 0.066
58 | AAGUAA | 1.45 ± 0.12 | 1.63 ± 0.089
59 | ACCAUG | 1.61 ± 0.099 | 1.74 ± 0.057
60 | GGGAAU | 1.6 ± 0.095 | 1.79 ± 0.14
61 | ACAACG | 1.46 ± 0.1 | 1.65 ± 0.12
62 | CUUCUG | 1.78 ± 0.061 | 1.85 ± 0.057
63 | AUCGAC | 1.631 ± 0.012 | 1.8 ± 0.075
64 | GGUUUC | 1.8 ± 0.12 | 1.86 ± 0.12
65 | CUGUGC | 1.739 ± 0.013 | 1.85 ± 0.095
66 | AUUUCC | 1.79 ± 0.019 | 1.9 ± 0.092
67 | UCGAAU | 1.45 ± 0.1 | 1.69 ± 0.059
68 | UUUGUC | 1.795 ± 0.011 | 1.9 ± 0.11
69 | UCUUCG | 1.79 ± 0.055 | 1.89 ± 0.12
70 | GGGGCC | 1.85 ± 0.069 | 1.94 ± 0.13
71 | AUCUUC | 1.81 ± 0.038 | 1.92 ± 0.086
72 | CGAAAG | 1.78 ± 0.056 | 1.88 ± 0.046

Row | Variant | normalized RNA/DNA level without ligand (log10) [1] | normalized RNA/DNA level with ligand (log10) [2]
73 | GGCAUC | 1.65 ± 0.023 | 1.81 ± 0.087
74 | GCACCU | 1.6643 ± 0.00076 | 1.85 ± 0.14
75 | GACGUG | 1.71 ± 0.052 | 1.83 ± 0.11
76 | AACAAC | 1.542 ± 0.01 | 1.75 ± 0.11
77 | GAGCCC | 1.81 ± 0.1 | 1.92 ± 0.16
78 | CGUGAG | 1.7 ± 0.026 | 1.83 ± 0.05
79 | CGAUGU | 1.75 ± 0.025 | 1.91 ± 0.11
80 | ACCCGA | 1.54 ± 0.039 | 1.73 ± 0.13
81 | AUAGCA | 1.71 ± 0.043 | 1.81 ± 0.15
82 | CGUUAG | 1.753 ± 0.0013 | 1.89 ± 0.11
83 | GCCUAA | 1.59 ± 0.071 | 1.78 ± 0.055
84 | UCGCGC | 1.73 ± 0.029 | 1.89 ± 0.093
85 | GCGUGC | 1.68 ± 0.0027 | 1.81 ± 0.14
86 | GAAUCC | 1.75 ± 0.058 | 1.86 ± 0.076
87 | CCCUGG | 1.74 ± 0.022 | 1.85 ± 0.03
88 | GGGACC | 1.84 ± 0.063 | 1.9 ± 0.15
89 | UAUAUU | 1.68 ± 0.043 | 1.86 ± 0.12
90 | UGUCUA | 1.71 ± 0.037 | 1.84 ± 0.15
91 | GUAUGC | 1.56 ± 0.065 | 1.75 ± 0.084
92 | AUUGUC | 1.73 ± 0.053 | 1.85 ± 0.15
93 | AGUUAU | 1.67 ± 0.06 | 1.86 ± 0.11
94 | GUACUU | 1.7 ± 0.036 | 1.81 ± 0.15
95 | ACGGGU | 1.42 ± 0.083 | 1.58 ± 0.092
96 | UGGUAC | 1.684 ± 0.015 | 1.83 ± 0.092

Row | Variant | normalized RNA/DNA level without ligand (log10) [1] | normalized RNA/DNA level with ligand (log10) [2]
97 | UACUCG | 1.77 ± 0.06 | 1.88 ± 0.17
98 | UAGAGU | 1.56 ± 0.066 | 1.73 ± 0.067
99 | GGAUGC | 1.7 ± 0.079 | 1.83 ± 0.067
100 | UCUUUG | 1.731 ± 0.0025 | 1.89 ± 0.069
101 | ACCCUU | 1.66 ± 0.046 | 1.78 ± 0.12
102 | GGACUC | 1.757 ± 0.0094 | 1.92 ± 0.082
103 | GCGCGC | 1.64 ± 0.07 | 1.8 ± 0.11
104 | UAAACG | 1.747 ± 0.0073 | 1.85 ± 0.068
105 | UACGUC | 1.69 ± 0.06 | 1.81 ± 0.13
106 | UUUGGU | 1.73 ± 0.043 | 1.88 ± 0.066
107 | AUCGGC | 1.78 ± 0.033 | 1.87 ± 0.16
108 | CGCAAG | 1.77 ± 0.024 | 1.86 ± 0.088
109 | GGGGAA | 1.48 ± 0.1 | 1.54 ± 0.055
110 | CGAGUA | 1.7354 ± 0.0011 | 1.79 ± 0.11
111 | ACGCCA | 1.675 ± 0.012 | 1.87 ± 0.09
112 | AACCAG | 1.6 ± 0.035 | 1.73 ± 0.13
113 | CAAACG | 1.776 ± 0.013 | 1.84 ± 0.059
114 | ACCUAG | 1.64 ± 0.053 | 1.78 ± 0.086
115 | CUAAGG | 1.748 ± 0.0049 | 1.8 ± 0.064
116 | UAUUGA | 1.6713 ± 0.00062 | 1.83 ± 0.1
